One may read the Kd as the constant that tells how readily two partners part at equilibrium. Low values mean higher affinity, high ones lower affinity. For orientation: EC50 means the concentration that produces a half-maximal response. High values mean weaker potency, low ones greater potency.

The target in test [1] is T1, human MSLN-His-Avi (human, UniProt Q13421 296-598, single biotin (BirA) in the biotinylated form).
T1 construct: Monomeric, made in HEK293-6E; Used both immobilised and in solution; also called hMSLN-His-Avi; biotinylated hMSLN-His-Avi
T1 sequence (Q13421 other isoform, or with tags, fused parts or gaps): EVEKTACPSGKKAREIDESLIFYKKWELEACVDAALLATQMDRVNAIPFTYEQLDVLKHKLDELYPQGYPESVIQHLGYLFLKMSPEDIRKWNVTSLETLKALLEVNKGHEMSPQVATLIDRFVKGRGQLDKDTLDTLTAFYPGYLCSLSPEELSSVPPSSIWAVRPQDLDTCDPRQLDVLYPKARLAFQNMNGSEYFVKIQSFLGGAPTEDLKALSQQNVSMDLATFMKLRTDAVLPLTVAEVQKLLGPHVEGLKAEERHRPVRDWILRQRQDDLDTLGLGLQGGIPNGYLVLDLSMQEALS
Nature of the test: SPR (Biacore), hMSLN-His-Avi immobilised at 100 RU, mAb injected. The procedure:
(§1) Human MSLN-His-Avi was immobilised on flow cell 2 on a CM5 Series S BIAcore sensor chip (GE Healthcare, BR100530) using an amine coupling kit (GE Healthcare, BR10050) to approximately 200 response units (RU). Flow cell 1 was left blank for subtraction. HEK293-6E supernatants or purified proteins were adjusted with HBS-EP+(GE Healthcare) to approximately 50 nM anti-MSLN mAb per sample. Samples were injected over flow cell 1 and 2 for 2.5 min at 30 μl/min and then allowed to dissociate in HBS-EP buffer for 2.5 min. Regeneration was achieved by injecting 10 mM glycine pH 1.5 (GE Healthcare, BR100354) for 30 seconds at a rate of 30 μl/min. Subtracted data (flow cell 2−flow cell 1) were analysed using BIAevaluation 3.2 Software (GE Healthcare).
(§2) For each bin described in 2.1.3, the binding kinetics were determined using the same method as described in section 2.1.2, except that human or cyno MSLN-His-Avi was immobilised at 50 or 100 RU. Clones were tested at a concentration range of 81 nM to 0.33 nM in 3-fold dilutions.

The target of test [2] is T2, human CEACAM-5-His-Fc (Sino Biological, 1077-H03H) (human, UniProt P06731 35-685).
T2 construct: not shown: His tag and Fc
T2 sequence (looked up): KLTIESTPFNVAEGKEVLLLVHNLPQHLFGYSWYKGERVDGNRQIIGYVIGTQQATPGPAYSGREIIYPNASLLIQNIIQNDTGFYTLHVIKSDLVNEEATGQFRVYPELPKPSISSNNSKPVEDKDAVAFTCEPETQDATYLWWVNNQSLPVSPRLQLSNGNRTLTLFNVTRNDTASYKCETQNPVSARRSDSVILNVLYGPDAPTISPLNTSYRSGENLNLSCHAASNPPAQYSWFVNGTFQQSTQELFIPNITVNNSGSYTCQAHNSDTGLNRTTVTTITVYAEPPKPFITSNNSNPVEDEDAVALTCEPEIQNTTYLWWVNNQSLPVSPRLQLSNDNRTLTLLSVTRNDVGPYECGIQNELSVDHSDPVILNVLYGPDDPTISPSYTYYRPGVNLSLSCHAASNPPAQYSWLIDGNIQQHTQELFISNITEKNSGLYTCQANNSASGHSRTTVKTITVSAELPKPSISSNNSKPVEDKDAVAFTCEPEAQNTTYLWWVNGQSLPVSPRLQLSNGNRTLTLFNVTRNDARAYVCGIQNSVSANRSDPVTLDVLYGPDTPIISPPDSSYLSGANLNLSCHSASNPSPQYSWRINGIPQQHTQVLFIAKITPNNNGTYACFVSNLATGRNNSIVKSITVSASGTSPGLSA
Nature of the test: ELISA, antigen coated at 1 ug/ml. As to the method: (§3) A similar protocol was used as described in section 1.2.1 in which maxisorp plates were coated with 1 μg/ml of recombinant human MSLN-His-Avi, human CEACAM-5-His-Fc (Sino Biological, 1077-H03H), human E-Cadherin (R&D systems, 8505-EC), human Thrombomodulin (Peprotech, 100-58) or human EpCAM-hFc (in-house production). Binding of the anti-MSLN mAbs, tested at a concentration range of 0.02 to 1000 nM (3-fold dilutions) was detected using anti-human Fab-HRP (Sigma, A0293). Positive controls for the respective molecules included human EpCAM antibody (clone 2G8 from patent no. U.S. Pat. No. 8,236,308 B2) CEACAM-5 antibody (clone hMN15 from patent no. U.S. Pat. No. 8,771,690 B2), human E-Cadherin antibody, mouse IgG2b clone 180215 (R&D systems, MAB1838), human Thrombomodulin antibody, mouse IgG1, clone 501733 (R&D systems, MAB3947). The latter two were detected using goat anti mouse Fc-HRP (Sigma, A9309) as secondary mAb.

For test [3], the target named is human Thrombomodulin (Peprotech, 100-58) (human, UniProt P07204 19-515). Put plainly: ELISA, antigen coated at 1 ug/ml. The procedure:
as §3
On the technique in general: In an ELISA, binding on a coated surface is turned into a signal by an enzyme label.

Test [4] has as its target T3, human EpCAM-hFc (in-house production) (human, UniProt P16422 24-265, limits assumed).
T3 construct: not shown: human Fc
T3 sequence (looked up): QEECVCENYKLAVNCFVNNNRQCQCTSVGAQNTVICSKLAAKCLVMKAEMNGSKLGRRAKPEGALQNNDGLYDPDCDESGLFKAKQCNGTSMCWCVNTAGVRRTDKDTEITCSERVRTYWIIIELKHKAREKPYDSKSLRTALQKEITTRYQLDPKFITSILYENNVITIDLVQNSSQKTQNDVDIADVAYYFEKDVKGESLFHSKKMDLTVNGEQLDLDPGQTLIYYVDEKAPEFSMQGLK
Put plainly: ELISA, antigen coated at 1 ug/ml. The procedure: as §3

For test [5], the target named is T4, human E-Cadherin (R&D systems, 8505-EC) (human, UniProt P12830 155-707).
T4 sequence (looked up): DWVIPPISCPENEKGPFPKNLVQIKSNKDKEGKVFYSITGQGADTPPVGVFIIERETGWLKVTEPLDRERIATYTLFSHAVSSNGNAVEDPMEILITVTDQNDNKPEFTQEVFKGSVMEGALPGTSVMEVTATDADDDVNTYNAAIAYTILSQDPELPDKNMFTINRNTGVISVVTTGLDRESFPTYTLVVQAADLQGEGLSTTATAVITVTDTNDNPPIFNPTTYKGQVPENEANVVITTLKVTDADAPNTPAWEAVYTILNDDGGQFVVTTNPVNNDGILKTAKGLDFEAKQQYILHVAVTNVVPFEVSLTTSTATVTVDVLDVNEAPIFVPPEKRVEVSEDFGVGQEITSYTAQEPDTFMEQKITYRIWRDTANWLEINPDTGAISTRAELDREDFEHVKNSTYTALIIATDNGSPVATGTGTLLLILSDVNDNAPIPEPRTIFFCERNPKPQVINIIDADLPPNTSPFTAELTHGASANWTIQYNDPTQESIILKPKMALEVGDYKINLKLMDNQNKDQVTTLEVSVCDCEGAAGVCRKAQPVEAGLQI
Put plainly: ELISA, antigen coated at 1 ug/ml. The procedure: as §3

Test [6] deals with T5, cell surface human mesothelin (MSLN) (human, UniProt Q13421 296-598).
T5 construct: whole, on cells; also called cell surface MSLN
T5 sequence (Q13421 other isoform, or with tags, fused parts or gaps limits assumed): as the sequence (Q13421 other isoform, or with tags, fused parts or gaps) above
Put plainly: flow cytometry, NCI-H226 cells (n = 3). The procedure:
Briefly, NCI-H226 cells (ATCC CRL-5826) were harvested from T175 cell culture flasks using StemPro Accutase (Gibco, A11105-01). Cells were centrifuged at 1200 rpm for 3 min and resuspended in ice cold FACS buffer made up of DPBS (Life Technologies, 14190169) and 1% BSA (Sigma-Aldrich, A7906) at 2×10⁶ cells/ml and 50 μl per well was seeded in a 96-well V-bottom plate (Costar, 3894). All mAbs tested were diluted in FACS buffer in 120 μl at a concentration range of 0.01-200 nM (4-fold dilutions). The NCI-H226 cells were then centrifuged, supernatant removed and cells resuspended in 100 μl of each mAb dilution and incubated at 4° C. for 45 min. Cells were washed twice by centrifugation with 150 μl FACS buffer, resuspended in 100 μl containing goat anti-human IgG (γ-chain specific) F(ab′)2 fragment-R-Phycoerythrin antibody (Sigma, P8047) diluted 1:1000 in FACS buffer and incubated at 4° C. for 45 min. The cells were washed once with 150 μl FACS buffer and then with 150 μl DPBS, resuspended in 150 μl DPBS containing DAPI (Biotium, 40043) at 1:10.000 and read on the BDCantoll or iQue (Intellicyt). Data was analysed using FlowJo v10 to determine the signal geometric mean for PE for live cells in each well.
A general note: A flow cytometer gives signals particle by particle.

For test [7], the target named is T1, human MSLN-His-Avi. Put plainly: ELISA, hMSLN-His-Avi coated at 1 ug/ml.
In test [8] the target is T1, human MSLN-His-Avi. Nature of the test: SPR (Biacore), hMSLN-His-Avi immobilised at 50 RU, mAb injected. As to the method: as §1, §2
A general note: Surface plasmon resonance follows binding to a sensor surface in real time, without labels.

The target in test [9] is T1, human MSLN-His-Avi. Put plainly: ratio of the two SPR KD.
The target of test [10] is T1, human MSLN-His-Avi. Put plainly: SPR as Example 4.1 (about 40 RU instead of 100), MSLN immobilised.
For test [11], the target named is T1, human MSLN-His-Avi. Nature of the test: SPR as Example 4.1 (about 40 RU instead of 100), MSLN in solution.

Sequence of human Thrombomodulin (Peprotech, 100-58) (P07204 19-515 limits assumed): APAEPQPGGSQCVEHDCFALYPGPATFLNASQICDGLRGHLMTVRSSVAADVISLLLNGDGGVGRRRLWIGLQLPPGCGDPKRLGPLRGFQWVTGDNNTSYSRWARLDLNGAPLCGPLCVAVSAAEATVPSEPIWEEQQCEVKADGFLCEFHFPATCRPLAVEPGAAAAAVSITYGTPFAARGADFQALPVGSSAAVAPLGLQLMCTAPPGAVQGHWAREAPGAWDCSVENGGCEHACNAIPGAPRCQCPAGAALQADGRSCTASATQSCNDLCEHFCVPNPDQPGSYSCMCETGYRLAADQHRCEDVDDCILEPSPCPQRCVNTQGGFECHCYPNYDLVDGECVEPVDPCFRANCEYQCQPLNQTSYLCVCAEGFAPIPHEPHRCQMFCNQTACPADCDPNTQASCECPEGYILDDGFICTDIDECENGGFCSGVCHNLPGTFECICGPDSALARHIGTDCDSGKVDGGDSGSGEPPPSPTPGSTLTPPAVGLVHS

B1: G1-AA/FS28-185 (antibody, human IgG1, kappa, L234A L235A, V domains shown)
VH: EVQLLESGGGLVQPGGSLRLSCAASGFTFTTSAMSWVRQAPGKGLEWVSRINPYEGETNYADSVKGRFTISRDNSKNTLYLQMNSLRAEDTAVYYCARGWSIATYYKSAMDYWGQGTLVTVSS
VL: EIVLTQSPGTLSLSPGERATLSCRASQSVSSSYLAWYQQKPGQAPRLLIYGASSRATGIPDRFSGSGSGTDFTLTISRLEPEDFAVYYCQQSSYSAPVTFGQGTKVEIKR
notes: IgG1 LALA
On to B1, for which the dissociation constant Kd was 29.6 nM with human MSLN-His-Avi [1] and 37 nM with human MSLN-His-Avi [8]. Also, the binding result in test [2], in test [3], in [4] and in test [5] was “no binding (tested: 1000 nM)” each time. Also, the concentration giving a half-maximal response (EC50) in [6] was 37.5 nM; with human MSLN-His-Avi [7], around 0.5 nM. Besides, in test [6], the “Emax (MFI signal)” value is 2440 MFI. The molecule also registered a maximum binding signal in the test with human MSLN-His-Avi [7] of 3.

B2: FS28-256-027 (in CD137 mAb^2 format, Table 6) (bispecific antibody, V domains shown)
VH: EVQLLESGGGLVQPGGSLRLSCAASGFTFTHTYMSWVRQAPGKGLEWVSNISPTYSTTNYADSVKGRFTISRDNNKNTLYLQMNSLRAEDTAVYYCARYNAYHAALDYWGQGTLVTVSS
VL: EIVLTQSPGTLSLSPGERATLSCRASQSVSSSYLAWYQQKPGQAPRLLIYGASSRATGIPDRFSGSGSGTDFTLTISRLEPEDFAVYYCQQTVPYPYTFGQGTKVEIK
Take B2: the “Ratio of KD in solution/immobilised for human MSLN-His-Avi” value (shortened to “Ratio of KD in solution/immobilised”) in the test with human MSLN-His-Avi [9] was 0.68. The dissociation constant (Kd) in the test with human MSLN-His-Avi [10] was 4.7 nM; with human MSLN-His-Avi [11], 3.2 nM.

B3: FS28-256-273 (in CD137 mAb^2 format) (bispecific antibody, V domains shown)
VH: EVQLLESGGGLVQPGGSLRLSCAASGFTFTHTYMSWVRQAPGKGLEWVSSISPTYSTTNYADSVKGRFTISRDNNKNTLYLQMNSLRAEDTAVYYCARYNAYHAALDYWGQGTLVTVSS
VL: EIVLTQSPGTLSLSPGERATLSCRASQSVSSSYLAWYQQKPGQAPRLLIYGASSRATGIPDRFSGSGSGTDFTLTISRLEPEDFAVYYCQQTVPYPYTFGQGTKVEIK
As to B3, the “Ratio of KD in solution/immobilised” value with human MSLN-His-Avi [9] amounted to 1.2. The results for the equilibrium dissociation constant (Kd) with human MSLN-His-Avi [10] and in the test with human MSLN-His-Avi [11] were 6 nM and 7.4 nM, respectively.

B4: FS28-256-272 (in CD137 mAb^2 format) (bispecific antibody, V domains shown)
VH: EVQLLESGGGLVQPGGSLRLSCAASGFTFTHTYMSWVRQAPGKGLEWVSHISPTYSTTNYADSVKGRFTISRDNNKNTLYLQMNSLRAEDTAVYYCARYNAYHAALDYWGQGTLVTVSS
VL: EIVLTQSPGTLSLSPGERATLSCRASQSVSSSYLAWYQQKPGQAPRLLIYGASSRATGIPDRFSGSGSGTDFTLTISRLEPEDFAVYYCQQTVPYPYTFGQGTKVEIK
notes: Position 55 is IMGT numbering, not the count on the entry
Consider B4, for which the “Ratio of KD in solution/immobilised” value with human MSLN-His-Avi [9] was 0.7. Besides, the Kd is 10.7 nM with human MSLN-His-Avi [10] and 7.6 nM in the test with human MSLN-His-Avi [11].

The record behind these values is patent publication US20220267421A1 (INVOX PHARMA, published 2022).
